# Assays:
# [1] = biological target: the molecule itself; assay: cross-linking; recombinant PRX3 incubated with indicated concentrations of thiostrepton (TS) for 30 min; reducing SDS-PAGE, immunoblot with anti-PRX3 antibody
# [2] = biological target: the molecule itself; assay: cross-linking; in vitro PRX3 turnover: 100 μM PRX3, 5 μM E. coli TRX2, 0.5 μM E. coli TR, NADPH regenerating system (or TCEP), 0.2 mM TS or DMSO, 16-18 h at 37°C, successive additions of 100 μM H2O2; reducing SDS-PAGE, GelCode Blue stain
# [3] = biological target: the molecule itself; assay: cross-linking; EE Mut cycled with and without TS as in the in vitro assay, treated with DTT, exchanged into 25 mM ammonium bicarbonate; intact mass by ESI-TOF MS
protein,measurement,setting,value
"Human recombinant PRX3 (peroxiredoxin 3), wild type, residues 62-256 (enzyme, UniProt P30048 62-256, looked up, peroxiredoxin 3 (PRX3), human, PRDX3 gene residues 62-256, codon optimized, in pET15b; also called rPRX3; WT PRX3; source: E. coli C41 (DE3), purified (nickel-NTA, Q-Sepharose FF, Superdex 200); not shown: His-tag, N-terminal, kept) APAVTQHAPYFKGTAVVNGEFKDLSLDDFKGKYLVLFFYPLDFTFVCPTEIVAFSDKANEFHDVNCEVVAVSVDSHFSHLAWINTPRKNGGLGHMNIALLSDLTKQISRDYGVLLEGSGLALRGLFIIDPNGVIKHLSVNDLPVGRSVEETLRLVKAFQYVETHGEVCPANWTPDSPTIKPSPAASKEYFQKVNQ",binding result,[1],binds
"Human recombinant PRX3 C127S, residues 62-256 (enzyme, UniProt P30048 62-256, looked up, peroxiredoxin 3 (PRX3), human, PRDX3 gene residues 62-256, non-catalytic cysteine replaced with serine; also called Cys127 mutant; source: E. coli C41 (DE3), purified (nickel-NTA, Q-Sepharose FF, Superdex 200); not shown: His-tag, N-terminal, kept) APAVTQHAPYFKGTAVVNGEFKDLSLDDFKGKYLVLFFYPLDFTFVCPTEIVAFSDKANEFHDVNSEVVAVSVDSHFSHLAWINTPRKNGGLGHMNIALLSDLTKQISRDYGVLLEGSGLALRGLFIIDPNGVIKHLSVNDLPVGRSVEETLRLVKAFQYVETHGEVCPANWTPDSPTIKPSPAASKEYFQKVNQ",binding result,[2],binds
"Engineered dimer of PRX3, S139E/A142E (EE Mut), residues 62-256 (enzyme, human, UniProt P30048 62-256, looked up, peroxiredoxin 3 (PRX3), human, PRDX3 gene residues 62-256, two charged residues introduced into the dimer-dimer interface; His-tag removed by digestion with biotinylated thrombin; Measured mass of the reduced monomer 21640.6 amu; also called EE mutant; dimeric variant of PRX3; source: E. coli C41 (DE3), purified (nickel-NTA, Q-Sepharose FF, Superdex 200); not shown: His-tag, N-terminal, cleaved) APAVTQHAPYFKGTAVVNGEFKDLSLDDFKGKYLVLFFYPLDFTFVCPTEIVAFSDKANEFHDVNCEVVAVSVDSHFEHLEWINTPRKNGGLGHMNIALLSDLTKQISRDYGVLLEGSGLALRGLFIIDPNGVIKHLSVNDLPVGRSVEETLRLVKAFQYVETHGEVCPANWTPDSPTIKPSPAASKEYFQKVNQ",stoichiometry N,[3],2
